Source: the supplement of paper PMC6757056
± gives the standard deviation of the averaged measurements.

B1: library; a variant is named by its letters at N, in order (parent)
chain: GCUGUCACCGGUGCUUGGUACGUUAUAUUCAGCCGGUCUGAUGAGUCUNNNNNNAGACGAAACAGC

Tests used:
(6R,S)-folinic acid [1] = variants of: B1; experiment: normalized RNA/DNA level without ligand (relative to sTRSVctl = 100) (log10 (% of sTRSVctl)); HEK293T overexpressing SLC46A1; higher = less ribozyme self-cleavage, higher mRNA level; conditions: without (6R,S)-folinic acid; ligand present: no
In short: (§1)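 Ribozyme switch library plasmids with mCherry reporters (eGFP in certain ligand experiments) went into HEK293T cells at 4 µg per 6-well well. Where ligand was used, it was applied 1 h before transfection, and total RNA was extracted with EDTA 72 h later for reverse transcription, amplification, barcoding and sequencing. RNA level is the RNA-to-DNA read ratio normalized to a spiked-in non-cleaving sequence or to the leading sequences, then scaled and log-transformed. Scaling was ×100 with log10, the leading set comprised 25 sequences, and the cutoff was ≥100 DNA reads.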

(6R,S)-folinic acid [2] = variants of: B1; experiment: normalized RNA/DNA level with ligand (relative to sTRSVctl = 100) (log10 (% of sTRSVctl)); HEK293T overexpressing SLC46A1; ligand concentration (+) RNA-Seq: 6 mM; higher = less ribozyme self-cleavage, higher mRNA level; conditions: with (6R,S)-folinic acid; ligand present: yes
In short: as §1

Row | Variant | normalized RNA/DNA level without ligand (log10) ((6R,S)-folinic acid [1]) | normalized RNA/DNA level with ligand (log10) ((6R,S)-folinic acid [2])
1 | ACUACG | 1.938 ± 0.0043 | 2.006 ± 0.02
2 | GCUAGG | 1.951 ± 0.016 | 2.031 ± 0.0073
3 | GCUAGA | 2.002 ± 0.0075 | 2.042 ± 0.012
4 | GCUAGU | 1.98 ± 0.024 | 2.01 ± 0.046
5 | GCUAGC | 2.035 ± 0.017 | 2.016 ± 0.012
6 | UCUGAU | 1.973 ± 0.008 | 2 ± 0.046
7 | UCUGAC | 2.011 ± 0.0043 | 2.01 ± 0.052
8 | UCUGAA | 1.911 ± 0.0014 | 1.98 ± 0.05
9 | UCUGAG | 1.745 ± 0.011 | 1.98 ± 0.03
10 | UCUACG | 1.891 ± 0.0021 | 2.01 ± 0.017
11 | UCUACA | 2.057 ± 0.0079 | 2.0488 ± 0.002
12 | UCUACU | 2.019 ± 0.0065 | 2.03 ± 0.029
13 | UCUACC | 2.0547 ± 0.001 | 2.054 ± 0.018
14 | CCUGCC | 2.058 ± 0.0075 | 2 ± 0.068
15 | CCUGCG | 2.01 ± 0.016 | 2.033 ± 0.02
16 | CCUGCA | 2.047 ± 0.0035 | 2.059 ± 0.0067
17 | ACGUAC | 2.018 ± 0.0052 | 2.02 ± 0.046
18 | ACGUAU | 1.943 ± 0.005 | 2.02 ± 0.008
19 | UCUGGU | 1.9654 ± 0.0015 | 2.02 ± 0.032
20 | UCUGGC | 2.03 ± 0.022 | 2.0358 ± 0.00061
21 | ACUCCU | 2.075 ± 0.0094 | 2.08 ± 0.05
22 | ACUCCG | 2.001 ± 0.014 | 2.03 ± 0.064
23 | ACUCCC | 2.054 ± 0.0096 | 2.02 ± 0.048
24 | ACUCCA | 2.056 ± 0.0064 | 2.04 ± 0.054

Row | Variant | normalized RNA/DNA level without ligand (log10) ((6R,S)-folinic acid [1]) | normalized RNA/DNA level with ligand (log10) ((6R,S)-folinic acid [2])
25 | ACUGGC | 2.045 ± 0.016 | 2.005 ± 0.016
26 | ACUGGU | 1.952 ± 0.016 | 2 ± 0.07
27 | ACUGGA | 1.943 ± 0.0043 | 2 ± 0.058
28 | CCGUGG | 2.022 ± 0.02 | 2.06 ± 0.023
29 | CCGUGC | 2.03 ± 0.048 | 1.99 ± 0.041
30 | CCGUGA | 2.03 ± 0.021 | 2.05 ± 0.037
31 | CCGUGU | 2.039 ± 0.0037 | 2.048 ± 0.0091
32 | CCUCAA | 2.0335 ± 0.00095 | 2 ± 0.059
33 | CCUCAU | 2.03 ± 0.025 | 2 ± 0.054
34 | CCUCAC | 2.0541 ± 0.0006 | 2.027 ± 0.013
35 | CCUCAG | 1.94 ± 0.024 | 1.96 ± 0.0042
36 | UCGUGU | 1.998 ± 0.0023 | 2.029 ± 0.0088
37 | UCGUGG | 1.947 ± 0.0075 | 2.02 ± 0.041
38 | UCGUGC | 2.074 ± 0.015 | 2.055 ± 0.0071
39 | UCGUGA | 1.955 ± 0.014 | 2.009 ± 0.0081
40 | GCUGCG | 2.002 ± 0.0047 | 2.05 ± 0.029
41 | GCUGCA | 2.01 ± 0.022 | 2.03 ± 0.047
42 | GCUGCU | 2.04 ± 0.027 | 2.055 ± 0.018
43 | ACUGCA | 2.02 ± 0.013 | 2.05 ± 0.009
44 | ACUGCG | 1.902 ± 0.011 | 2.013 ± 0.013
45 | ACUGCU | 2.0021 ± 0.002 | 2.008 ± 0.015
46 | ACUGCC | 2.06 ± 0.024 | 2.06 ± 0.039
47 | CCUAGG | 2.05 ± 0.03 | 2.043 ± 0.0025
48 | CCUAGU | 2.074 ± 0.0064 | 2.06 ± 0.029

Row | Variant | normalized RNA/DNA level without ligand (log10) ((6R,S)-folinic acid [1]) | normalized RNA/DNA level with ligand (log10) ((6R,S)-folinic acid [2])
49 | CCUAGA | 2.05 ± 0.016 | 2.05 ± 0.046
50 | UCUCUA | 1.997 ± 0.0062 | 2.01 ± 0.04
51 | UCUCUC | 2.076 ± 0.015 | 2.04 ± 0.035
52 | UCUCUG | 1.89 ± 0.011 | 1.96 ± 0.027
53 | UCUCUU | 2.06 ± 0.034 | 2.06 ± 0.059
54 | ACUCUG | 1.925 ± 0.018 | 2 ± 0.025
55 | ACUCUU | 2.0142 ± 0.0018 | 2.01 ± 0.046
56 | ACUCUA | 2.005 ± 0.0056 | 2.01 ± 0.06
57 | ACUCUC | 2.086 ± 0.0057 | 2.06 ± 0.024
58 | UCGUAG | 1.8378 ± 0.0006 | 2 ± 0.052
59 | UCGUAU | 1.97 ± 0.029 | 2 ± 0.07
60 | GCUCAG | 1.96 ± 0.0025 | 2.02 ± 0.03
61 | UCUCGG | 2.03 ± 0.034 | 2.042 ± 0.0089
62 | UCUCGC | 2.1 ± 0.032 | 2.05 ± 0.028
63 | UCUGCU | 2.069 ± 0.0056 | 2.07 ± 0.0045
64 | UCUGCC | 1.981 ± 0.0055 | 2.02 ± 0.025
65 | UCUGCA | 1.9967 ± 0.0014 | 2.06 ± 0.022
66 | UCUGCG | 1.826 ± 0.008 | 2.03 ± 0.034
67 | CCUAUG | 2.04 ± 0.031 | 2.06 ± 0.028
68 | CCUAUU | 2.038 ± 0.0071 | 2.04 ± 0.022
69 | CCUAUC | 2.1 ± 0.023 | 2.0649 ± 0.0011
70 | CCUAUA | 2.029 ± 0.0081 | 2.01 ± 0.033
71 | GCUCUU | 2.038 ± 0.014 | 1.998 ± 0.011
72 | GCUCUA | 2.01 ± 0.024 | 2.03 ± 0.018

Row | Variant | normalized RNA/DNA level without ligand (log10) ((6R,S)-folinic acid [1]) | normalized RNA/DNA level with ligand (log10) ((6R,S)-folinic acid [2])
73 | GCUCUC | 2.126 ± 0.0057 | 2.08 ± 0.039
74 | UCGUUU | 1.99 ± 0.03 | 2.028 ± 0.0051
75 | UCGUUC | 2.0303 ± 0.002 | 2.01 ± 0.034
76 | UCGUUA | 2.009 ± 0.0058 | 2.04 ± 0.038
77 | CCUGGU | 2.044 ± 0.0037 | 2.088 ± 0.011
78 | CCUGGG | 2.012 ± 0.01 | 2.017 ± 0.0021
79 | CCUGGC | 2.051 ± 0.013 | 2.05 ± 0.045
80 | CCUGGA | 2.046 ± 0.0022 | 2.068 ± 0.0024
81 | UCUCCG | 1.96 ± 0.065 | 2.022 ± 0.013
82 | UCUCCU | 2.01 ± 0.028 | 2.02 ± 0.032
83 | UCUCCA | 2.017 ± 0.0042 | 2.023 ± 0.0081
84 | UCUCCC | 2.07 ± 0.021 | 2.06 ± 0.05
85 | ACUAGU | 2.02 ± 0.02 | 2.05 ± 0.026
86 | ACUAGA | 1.969 ± 0.014 | 2.01 ± 0.039
87 | ACUAGC | 2 ± 0.011 | 2.02 ± 0.025
88 | ACUAGG | 1.912 ± 0.015 | 1.99 ± 0.038
89 | GCGUAU | 2.03 ± 0.026 | 2.06 ± 0.022
90 | CCUCGG | 2.078 ± 0.0042 | 1.99 ± 0.012
91 | CCUCGC | 2.08 ± 0.03 | 2.033 ± 0.017
92 | CCUCGU | 2.01 ± 0.037 | 2.01 ± 0.07
93 | CCUCGA | 1.998 ± 0.011 | 2.02 ± 0.029
94 | UCUUAU | 2 ± 0.028 | 2 ± 0.013
95 | UCUUAC | 2.003 ± 0.0077 | 1.998 ± 0.0031
96 | UCUUAA | 1.962 ± 0.011 | 2.002 ± 0.0044

Row | Variant | normalized RNA/DNA level without ligand (log10) ((6R,S)-folinic acid [1]) | normalized RNA/DNA level with ligand (log10) ((6R,S)-folinic acid [2])
97 | ACUAUC | 2.063 ± 0.0022 | 2.04 ± 0.038
98 | ACUAUG | 1.9049 ± 0.00034 | 2.008 ± 0.016
99 | ACUAUU | 2.027 ± 0.0052 | 2.02 ± 0.043
100 | ACUAUA | 1.983 ± 0.012 | 2.013 ± 0.0097
101 | UCUUCA | 2.028 ± 0.0079 | 2.04 ± 0.046
102 | ACUCAG | 1.967 ± 0.0061 | 1.98 ± 0.036
103 | ACUCAC | 2.058 ± 0.007 | 2.045 ± 0.0072
104 | ACGUUC | 2.07 ± 0.022 | 2.02 ± 0.037
105 | ACGUUG | 1.936 ± 0.0063 | 2.03 ± 0.043
106 | UCUAUG | 1.832 ± 0.017 | 2.022 ± 0.0024
107 | UCUAUC | 2.07 ± 0.024 | 2.062 ± 0.0087
108 | UCUAUU | 2.048 ± 0.0024 | 2.046 ± 0.0024
109 | UCUAUA | 2 ± 0.032 | 2.04 ± 0.025
110 | GCUACG | 2.026 ± 0.0068 | 2.065 ± 0.0045
111 | GCUACU | 2.019 ± 0.0099 | 1.98 ± 0.043
112 | GCUACC | 2.06 ± 0.023 | 2.05 ± 0.033
113 | UCUAGC | 2.03 ± 0.024 | 2.02 ± 0.051
114 | UCUAGA | 2.05 ± 0.024 | 2.043 ± 0.0037
115 | UCUAGU | 1.984 ± 0.0028 | 2.04 ± 0.032
116 | UCUAGG | 1.982 ± 0.015 | 2.05 ± 0.026
